Experimental data published in patent US20090291081A1 (AbbVie / Abbott, published 2009).
Residue numbers refer to the chain shown, from its start.

T1: human IL-1α (human, UniProt P01583 113-271)
T1 construct: also called IL-1alpha; hIL-1α
T1 sequence (looked up): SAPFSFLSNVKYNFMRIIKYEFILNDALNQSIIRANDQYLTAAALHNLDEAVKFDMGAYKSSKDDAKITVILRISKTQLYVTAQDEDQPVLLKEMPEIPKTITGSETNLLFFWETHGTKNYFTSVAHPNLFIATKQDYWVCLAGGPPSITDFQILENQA

B1: ABT1-95-21 (other)
VL: DIQMTQSPSSLSASVGDRVTITCRASQPIVRNLRWYQQKPGKAPKLLIYSSSYLEPGVPSRFSGSGSGTDFTLTISSLQPEDFATYYCQQGYRWPVTFGQGTKVEIKR
notes: VK dAb
B2: ABT1-95-22 (other)
VL: B1 VL with R93H
notes: VK dAb
B3: ABT1-95-23 (other)
VL: B1 VL with I29T
notes: VK dAb
B4: ABT1-95-24 (other)
VL: B1 VL with Q89C
notes: VK dAb
B5: ABT1-95-25 (other)
VL: B1 VL with Q89D
notes: VK dAb
B6: ABT1-95-26 (other)
VL: B1 VL with Q89G
notes: VK dAb
B7: ABT1-95-27 (other)
VL: B1 VL with G41R, Q89A
notes: VK dAb
B8: ABT1-95-28 (other)
VL: B1 VL with R93G
notes: VK dAb
B9: ABT1-95-29 (other)
VL: B1 VL with R93Q
notes: VK dAb
B10: ABT1-95-30 (other)
VL: B1 VL with G91S
notes: VK dAb
B11: ABT1-95-31 (other)
VL: B1 VL with R93L
notes: VK dAb
B12: ABT1-95-32 (other)
VL: B1 VL with R93S
notes: VK dAb
B13: ABT1-95-33 (other)
VL: B1 VL with Q89R
notes: VK dAb
B14: ABT1-95-34 (other)
VL: B1 VL with Q27A, Y87H
notes: VK dAb
B15: ABT1-95-41 (other)
VL: B1 VL with Q27Y, Y87H
notes: VK dAb
B16: ABT1-95-44 (other)
VL: B1 VL with Q27S, Y87H
notes: VK dAb
B17: ABT1-95-47 (other)
VL: B1 VL with Q27M, Y87H
notes: VK dAb
B18: ABT1-95-64 (other)
VL: B1 VL with I48V, Y49H, Y87H, I106V
notes: VK dAb
B19: ABT1-95-67 (other)
VL: B1 VL with S50A, Y87H
notes: VK dAb
B20: ABT1-95-80 (other)
VL: B1 VL with S51V, Y87H
notes: VK dAb
B21: ABT1-95-85 (other)
VL: B1 VL with S26G, S51G, Y87H, Q89L
notes: VK dAb
B22: ABT1-95-92 (other)
VL: B1 VL with Y53T, Y87H
notes: VK dAb
B23: ABT1-95-102 (other)
VL: B1 VL with E55Q, Y87H
notes: VK dAb
B24: ABT1-95-107 (other)
VL: B1 VL with P56H, Y87H
notes: VK dAb
B25: ABT1-95-115 (other)
VL: B1 VL with Y87H, Q89L
notes: VK dAb
B26: ABT1-95-116 (other)
VL: B1 VL with Y87H, Q89V
notes: VK dAb
B27: ABT1-95-117 (other)
VL: B1 VL with T85M, Y87H, Q89V
notes: VK dAb
B28: ABT1-95-118 (other)
VL: B1 VL with Y87H, Q89S
notes: VK dAb
B29: ABT1-95-121 (other)
VL: B1 VL with Y87H, R93E
notes: VK dAb
B30: ABT1-95-122 (other)
VL: B1 VL with T72I, Y87H
notes: VK dAb
B31: ABT1-95-131 (other)
VL: B1 VL with I29T, Y87H
notes: VK dAb
B32: ABT1-95-132 (other)
VL: B1 VL with K42I, L78P, Y87H
notes: VK dAb
B33: ABT1-95-139 (other)
VL: B1 VL with P28Q, Y87H
notes: VK dAb
B34: ABT1-95-148 (other)
VL: B1 VL with P28T, Y87H
notes: VK dAb
B35: ABT1-95-149 (other)
VL: B1 VL with P28A, Y87H
notes: VK dAb
B36: ABT1-95-160 (other)
VL: B1 VL with Y87H, R93V
notes: VK dAb
B37: ABT1-95-161 (other)
VL: B1 VL with Y87H, V96P
notes: VK dAb
B38: ABT1-163 (other)
VL: DIQMTQSPSSLSASVGDRVTITCRASGNIVHNLRWYQQKPGKAPKLLIYAASRLQSGVPSRFSGSGSGTDFTLTISSLQPEDFATYYCAQGYEWPLTFGQGTKVEIKQ
notes: VK dAb
B39: ABT1-164 (other)
VL: DIQMTQSPSSLSASVGDRVTITCRASRPIAGNLRWYQQKPGKAPKLLIWGASSLQSGVPSRFSGSGSGTDFTLTISSLQPEDFATYYCVQGWQWPITFGQGTKVEIKR
notes: VK dAb
B40: ABT1-6-15 (other)
VH: EVQLLESGGGLVQPGGSLRLSCAASGFTFVRYDMAWVRQAPGKGLEWVSSINKSGALTSYADSVKGRFTISRDNSKNTLYLQMNSLRAEDTAVYYCAKGWASFDYWGQGTLVTVSS
notes: VH dAb
B41: ABT1-6 (other)
VH: B40 VH with V30G, R31A, A35Q
notes: VH dAb
B42: ABT1-6-3 (other)
VH: B40 VH with V30G, R31A, A35Q, N52Y
notes: VH dAb
B43: ABT1-92 (other)
VH: EVQLLESGGGLVQPGGSLRLSCAASGFTFSTYTMTWVRQAPGKGLEWVSTIFPGGSTTYYADSVKGRFTISRDNSKNTLYLQMNSLRAEDTAVYYCAKYVDFVKLSFDYWGQRTLVTVSS
notes: VH dAb
B44: ABT1-93 (other)
VH: EVQLLESGGGLVQPGGSLRLSCAASGFTFNEYNMVWVRQAPGKGLEWVSSISGGGGFTYYADSVKGRFTISRDNSKNTLYLQMNSLRAEDTAVYYCAKPLRGFVCSQHCSFDYWGQGTLVTVSS
notes: VH dAb
B45: ABT1-122-18 (other)
VL: DIQMTQSPSSLSASVGDRVTITCRASQPIWTELNWYQQKPGKAPKLLVYGSSSLQSGVPSRFSGSGSGTDFTLTISSLQPEDFATYYCQQFAYFPATFGQGTKVEIKR
notes: VK dAb
B46: ABT1-141-33 (other)
VL: DIQMTQSPSSLSASVGDRVTITCRASQWIQKQLAWYQLKPGKAPKLLIYSSSWLQSGVPSRFSGSGSGTDFTLTISSLQPEDFATYYCQQHLRVPMTFGQGTKVEIKR
B47: ABT1-141-562 (other)
VL: B46 VL with S26N, L38Q
B48: ABT1-149 (other)
VL: DIQMTQSPSSLSASVGDRVTITCRASQSISSYLNWYQQKPGKAPKLLIGGLSGLQSGVPSRFSGSGSGTDFTLTISSLQPEDFATYYCMQWWRWPSTFGQGTKVEIKRAAAEQKLISEED

biological target: T1, human IL-1α; assay: Table 62 IC50; RBA presumed

B1 and B2 are the same in IC50: 0.5 nM for the first, 0.5 nM for the second.

B3 and B4 are the same in IC50: 0.5 nM for the first, 0.5 nM for the second.

B5 and B6 are the same in IC50: 0.5 nM for the first, 0.5 nM for the second.

Going from B7 to B8, the IC50 rises from 0.5 nM to over 0.5 nM. The first is the more potent here.

B9 and B10 cannot be ordered by IC50: over 0.5 nM for the first, over 1 nM for the second.

B11 and B12 cannot be ordered by IC50: over 0.5 nM for the first, over 0.5 nM for the second.

First: B13
Second: B14
The IC50 of the first is 5-fold higher: 0.5 nM for the first, 0.1 nM for the second. The second is the more potent here.

B15 and B16 cannot be ordered by IC50: under 0.1 nM for the first, under 0.1 nM for the second.

Compared with B17, B18 is 30-fold higher in IC50: 0.1 nM for the first, 3 nM for the second.

Compared with B19, B20 is 3-fold higher in IC50: 0.1 nM for the first, 0.3 nM for the second. The first is the more potent here.

First: B21
Second: B22
The IC50 of the first is higher: 0.2 nM for the first, under 0.1 nM for the second.

B23 and B24 are the same in IC50: 0.1 nM for the first, 0.1 nM for the second.

B25 and B26 are the same in IC50: 0.2 nM for the first, 0.2 nM for the second.

B27 and B28 are the same in IC50: 0.2 nM for the first, 0.2 nM for the second.

Going from B29 to B30, the IC50 falls from 0.2 nM to 0.1 nM (2-fold).

B31 and B32 are the same in IC50: 0.1 nM for the first, 0.1 nM for the second.

B33 and B34 are the same in IC50: 0.2 nM for the first, 0.2 nM for the second.

First: B35
Second: B36
The IC50 of the first is 2-fold higher: 0.2 nM for the first, 0.1 nM for the second. The second is the more potent here.

Going from B37 to B38, the IC50 rises from 0.1 nM to 1000 nM (10000-fold). The first is the more potent here.

Compared with B39, B40 is lower in IC50: over 1000 nM for the first, 200 nM for the second. The second is the more potent here.

First: B41
Second: B42
The IC50 of the first is 38-fold higher: 3000 nM for the first, 80 nM for the second. The second is the more potent here.

B43 and B44 cannot be ordered by IC50: over 10000 nM for the first, over 10000 nM for the second.

In the case of B45, the IC50 is reported as 5 nM.

biological target: T1, human IL-1α; assay: cell-based or functional assay

Going from B1 to B2, the ND50 rises from 0.61 nM to 1 nM (1.6-fold).

First: B3
Second: B4
The ND50 of the first is 1.9-fold higher: 0.5 nM for the first, 0.27 nM for the second.

Going from B5 to B6, the ND50 rises from 0.43 nM to 0.71 nM (1.7-fold).

First: B7
Second: B8
The ND50 of the first is 2-fold lower: 1 nM for the first, 2 nM for the second.

First: B9
Second: B10
The ND50 of the first is lower: 1 nM for the first, over 10 nM for the second.

First: B11
Second: B12
The ND50 of the first is 2.8-fold higher: 3.3 nM for the first, 1.2 nM for the second.

B13 and B14 are the same in ND50: 1 nM for the first, 1 nM for the second.

B15 and B16 are the same in ND50: 0.15 nM for the first, 0.15 nM for the second.

Compared with B17, B18 is 3.2-fold higher in ND50: 0.139 nM for the first, 0.438 nM for the second.

First: B19
Second: B20
The ND50 of the first is 5.5-fold higher: 0.044 nM for the first, 0.008 nM for the second.

B21 and B22 are within 1.5-fold of each other in ND50: 0.713 nM for the first, 0.5 nM for the second.

Going from B23 to B24, the ND50 rises from 0.184 nM to 0.5 nM (2.7-fold).

B25 and B26 are within 1.5-fold of each other in ND50: 0.23 nM for the first, 0.168 nM for the second.

B27 and B28 are within 1.5-fold of each other in ND50: 0.1 nM for the first, 0.122 nM for the second.

B29 and B30 are within 1.5-fold of each other in ND50: 0.1 nM for the first, 0.116 nM for the second.

First: B31
Second: B32
The ND50 of the first is 24-fold lower: 0.085 nM for the first, 2 nM for the second.

Going from B33 to B34, the ND50 rises from 0.1 nM to 0.19 nM (1.9-fold).

Going from B35 to B36, the ND50 rises from 0.064 nM to 0.238 nM (3.7-fold).

Going from B37 to B38, the ND50 rises from 0.5 nM to 105 nM (210-fold).

First: B39
Second: B40
The ND50 of the first is 36-fold lower: 14 nM for the first, 500 nM for the second.

First: B41
Second: B42
The ND50 of the first is 50-fold higher: 3000 nM for the first, 60 nM for the second.

Going from B43 to B44, the ND50 falls from over 10000 nM to 5000 nM.

Going from B45 to B46, the ND50 falls from 7 nM to 3 nM (2.3-fold).

B47 and B48 cannot be ordered by ND50: over 10 nM for the first, 100 nM for the second.
